The values below come from patent US20160362487A1 (Regeneron, published 2016).

Residue numbers refer to the chain shown, from its start. Numbers in names are those of the source.

By Kd is commonly meant a measure of binding affinity in units of concentration. The koff is the first-order rate constant of dissociation. As usually defined, the kon is the second-order rate constant of association. A word on the t½: it is the time needed for the level to fall by half in the phase considered.

In experiment [1] the target is T1, human IL-33 (R&D Systems, #3625-IL-010/CF) (human, UniProt O95760 112-270).
T1 construct: Commercial recombinant protein; also called hIL-33; interleukin-33
T1 sequence (looked up): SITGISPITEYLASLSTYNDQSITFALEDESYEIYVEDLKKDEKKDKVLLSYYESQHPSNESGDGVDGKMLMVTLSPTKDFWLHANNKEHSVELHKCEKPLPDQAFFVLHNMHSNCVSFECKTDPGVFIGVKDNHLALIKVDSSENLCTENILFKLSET
As to the kind of experiment: SPR 25C pH7.4, mAb captured. Put shortly:
(§1)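 Anti-IL-33 mAbs were captured on a Biacore 4000 via anti-mouse or anti-human Fc surfaces. Human IL-33 or cynomolgus IL-33-6His was injected in ABS-ET pH 7.4 with 4 min association and 10 min dissociation at 25 °C or 37 °C. For the pH chase, a 30 s pH 7.4 dissociation was followed by a 3 min pH 6.0 buffer injection. ka and kd came from 1:1 fits, and KD and t½ were calculated from them.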

Experiment [2] deals with T2, cynomolgus monkey IL-33 expressed with a C-terminal hexahistidine tag (cynomolgus monkey).
T2 construct: also called MfIL-33-6His; Mf-IL-33-6His
T2 chain: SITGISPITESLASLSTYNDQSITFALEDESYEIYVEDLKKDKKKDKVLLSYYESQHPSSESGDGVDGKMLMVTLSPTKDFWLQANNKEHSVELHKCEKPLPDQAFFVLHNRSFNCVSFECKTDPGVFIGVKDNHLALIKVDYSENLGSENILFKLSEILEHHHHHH
The experiment can be described thus: SPR 25C pH7.4, mAb captured. An outline of the steps:
as §1

For experiment [3], the target named is T1, human IL-33 (R&D Systems, …). As to the kind of experiment: SPR 37C pH7.4, mAb captured. Put shortly:
as §1

The target in experiment [4] is T2, cynomolgus monkey IL-33 expressed with …. The experiment can be described thus: SPR 37C pH7.4, mAb captured. An outline of the steps: as §1
Experiment [5] shares this target. The experiment can be described thus: BLI; mAb-1 on captured MfIL-33-6His. An outline of the steps:
(§2)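 Bio-layer interferometry competition at 25 °C in HEPES pH 7.4 buffer with EDTA, Tween-20 and BSA. Sensors with captured MfIL-33-6His saturated with mAb-1 (50 μg/mL, 5 min), then exposed to mAb-2 (50 μg/mL, 4 min). Maximum binding response recorded for each step.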
Background: BLI is a label-free optical method that tracks binding on a fibre tip over time.

For experiment [6], the target named is T3, pre-formed complex of hIL-33 and captured hST2-MMH (human, UniProt O95760 112-270).
T3 construct: Ligand-receptor complex on the sensor: hST2-MMH captured by anti-myc mAb and saturated with 100 nM hIL-33; also called hIL-33 pre-complexed with hST2-MMH
As to the kind of experiment: SPR 25C, 100 nM mAb over hIL-33/hST2-MMH complex. Put shortly:
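By SPR at 25 °C in HBS-ET, pH 7.4, captured hST2-MMH was saturated with 100 nM human IL-33 for 3 min. Then 100 nM antibody was injected for 3 min, and the binding response 3 min after antibody injection was recorded.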

Experiment [7] addresses T2, cynomolgus monkey IL-33 expressed with …. As to the kind of experiment: BLI; captured MfIL-33-6His, mAb-1 step with Buffer. An outline of the steps: as §2

B1: H4H9672P (antibody, human IgG4, V domains shown)
VH: EVQLVESGGGLVQPGGSLRLSCAASGFTLRSYVMYWVRQGPGKGLEGVSGISGSSGGTYYTDSVKGRFTISRDNSKNTLFLQMNSLRAEDTAVYFCARSVYSTTWYGGFQHWGQGTLVTVSS
VL: DIQMTQSPSSVSVSVGDRVTITCRASQVISSWLAWYQLKPGKAPKLLIYAASSLQSGVPSRFSGSGSGTDFTLTISGLQPEDFAVYYCQQTNSFPLTFGGGTKVEIK
notes: Human IgG4 Fc (H4H)
Take B1: in experiment [1], the Kd was 0.527 nM, the koff came to 0.000352 s⁻¹, the kon amounted to 668000 M⁻¹ s⁻¹ and the t½ worked out at 33 min. In experiment [2], this molecule came in with a Kd of 8.22 nM, a koff of 0.0036 s⁻¹, a kon of 437000 M⁻¹ s⁻¹ and a t½ of 3.2 min. Moreover, in experiment [3], the dissociation constant Kd was found to be 1.05 nM, the koff worked out at 0.00115 s⁻¹, the kon came out at 1.09e+06 M⁻¹ s⁻¹ and the t½ is 10 min. In experiment [4], this molecule returned a Kd of 13.7 nM, a koff of 0.013 s⁻¹, a kon of 946000 M⁻¹ s⁻¹ and a t½ of 0.9 min. In addition, the “mAb-1 Binding (nm)” value in experiment [5] was determined as 0.56 nm. For the same molecule, the “Antibody Binding Response (RU)” value in experiment [6] was -1 RU. Further, the “mAb-2 Binding to the Pre-complex of mAb-1 & MfIL-33-6xHis” value (from here on “mAb-2 Binding to the Pre-complex”) in experiment [7] is 0.3 nm.

B2: H4H9676P (antibody, human IgG4, V domains shown)
VH: EVQLVESGGGLVQPGGSLRLSCSASGFTFSSYAMNWVRQAPGKGLEWVTAISGSGGGTYYADSVKGRFTISRDNSKNSLFLQLNSLRAEDTAVYYCAKQTYTSSWYGGFDIWGQGTMVTVSS
VL: B1 VL with V13A, V28G, I29F, L38Q, K39I, S53R, S63R, G77S, V85T, T91A
notes: Human IgG4 Fc (H4H)
In experiment [1], B2 returned a Kd of 0.334 nM, a koff of 0.000345 s⁻¹, a kon of 1.03e+06 M⁻¹ s⁻¹ and a t½ of 33 min. Moreover, in experiment [2], the affinity, expressed as Kd, was 4.84 nM; the off-rate constant (koff) is 0.00412 s⁻¹; the kon was 852000 M⁻¹ s⁻¹; the t½ was found to be 2.8 min. In experiment [3], this molecule yielded a Kd of 0.922 nM, a koff of 0.00128 s⁻¹, a kon of 1.38e+06 M⁻¹ s⁻¹ and a t½ of 9 min. In experiment [4], this molecule gave a dissociation constant (Kd) of 7.7 nM, a koff of 0.0144 s⁻¹, a kon of 1.87e+06 M⁻¹ s⁻¹ and a t½ of 0.8 min. Further, in experiment [5], the “mAb-1 Binding (nm)” value came to 0.62 nm. For the same molecule, in experiment [6], the “Antibody Binding Response (RU)” value was -1 RU. In addition, in experiment [7], the “mAb-2 Binding to the Pre-complex” value amounted to 0.29 nm.

B3: H4H9670P (antibody, V domains shown)
VH: EVQLVESGGGLVQPGGSLRLSCAASGFTLSSYAMSWVRQAPGKGLEWVSAISGSGGSTYYADSVKGRFTISRDNSKNSLYLQLNSLRAEDTAVYYCAKTLYTTSWYGGFQHWGQGTLVTVSS
VL: DIQMTQSPSSVSASIGDRVTITCRASQGISSWLAWYQQKPGKVPKLLIYAASSLQSGFPSRFSGSGSGTDFTLTISSLQPEDFATYYCQQTHSFPWTVGQGTKVEIK
notes: Human IgG4 Fc (H4H)
As for B3, in experiment [1], the Kd stood at 0.368 nM, the off-rate constant (koff) was determined as 0.000289 s⁻¹, the kon is 786000 M⁻¹ s⁻¹ and the t½ was determined as 40 min. In experiment [2], the dissociation constant (Kd) was determined as 4.77 nM, the koff turned out to be 0.0021 s⁻¹, the kon is 440000 M⁻¹ s⁻¹ and the t½ is 6 min. In experiment [3], the Kd was determined as 0.676 nM, the dissociation rate constant (koff) amounted to 0.000783 s⁻¹, the association rate constant (kon) turned out to be 1.16e+06 M⁻¹ s⁻¹ and the t½ amounted to 15 min. Also, in experiment [4], the Kd was found to be 6.84 nM, the koff came out at 0.00503 s⁻¹, the kon was found to be 735000 M⁻¹ s⁻¹ and the t½ is 2.3 min. Further, in experiment [5], the “mAb-1 Binding (nm)” value was 0.56 nm. The “Antibody Binding Response (RU)” value in experiment [6] was -1 RU. Also, the “mAb-2 Binding to the Pre-complex” value in experiment [7] stood at 0.3 nm.

B4: H4H9671P (antibody, human IgG4, V domains shown)
VH: B1 VH with V33F, Y35T, G40V, G50A, S54I, S99T, T103S, T104S, W105Y
VL: B1 VL with V28G, L38Q, A50V, G77S, V85T
notes: Human IgG4 Fc (H4H)
B4: in experiment [1], the Kd was found to be 0.453 nM, the dissociation rate constant (koff) is 0.000349 s⁻¹, the association rate constant (kon) was determined as 771000 M⁻¹ s⁻¹ and the t½ was 33 min. For the same molecule, in experiment [2], the affinity, expressed as Kd, was 2.55 nM; the off-rate (koff) is 0.0015 s⁻¹; the kon was found to be 587000 M⁻¹ s⁻¹; the t½ amounted to 8 min. Moreover, in experiment [3], the Kd came out at 0.938 nM, the dissociation rate constant (koff) stood at 0.00114 s⁻¹, the on-rate (kon) amounted to 1.21e+06 M⁻¹ s⁻¹ and the t½ came to 10 min. In experiment [4], binding was put at a Kd of 5.08 nM, the koff was found to be 0.00607 s⁻¹, the kon stood at 1.2e+06 M⁻¹ s⁻¹ and the t½ turned out to be 1.9 min. For the same molecule, the “mAb-1 Binding (nm)” value in experiment [5] is 0.58 nm. Further, the “Antibody Binding Response (RU)” value in experiment [6] was -1 RU. Besides, in experiment [7], the “mAb-2 Binding to the Pre-complex” value was 0.29 nm.

B5: H4H9675P (antibody, human IgG4, V domains shown)
VH: EVQLVESGGNLEQPGGSLRLSCTASGFTFSRSAMNWVRRAPGKGLEWVSGISGSGGRTYYADSVKGRFTISRDNSKNTLYLQMNSLSAEDTAAYYCAKDSYTTSWYGGMDVWGHGTTVTVSS
VL: DIQMTQSPSSVSASVGDRVTITCRASQGIFSWLAWYQQKPGKAPKLLIYAASSLQSGVPSRFSGSGSGTDFTLTISSLQPEDFAIYYCQQANSVPITFGQGTRLEIK
notes: Human IgG4 Fc (H4H)
In experiment [1], B5 displayed a Kd of 0.254 nM, a dissociation rate constant (koff) of 0.000258 s⁻¹, a kon of 1.02e+06 M⁻¹ s⁻¹ and a t½ of 45 min. Moreover, in experiment [2], the affinity, expressed as Kd, was 2.55 nM; the koff was determined as 0.00129 s⁻¹; the kon was found to be 506000 M⁻¹ s⁻¹; the t½ worked out at 9 min. In experiment [3], this molecule showed a Kd of 0.411 nM, a koff of 0.000872 s⁻¹, a kon of 2.12e+06 M⁻¹ s⁻¹ and a t½ of 13 min. Further, in experiment [4], binding was put at a Kd of 4.81 nM, the koff came to 0.00491 s⁻¹, the kon was found to be 1.02e+06 M⁻¹ s⁻¹ and the t½ is 2.4 min. Also, in experiment [5], the “mAb-1 Binding (nm)” value amounted to 0.52 nm. In experiment [6], the “Antibody Binding Response (RU)” value was -1 RU. Further, the “mAb-2 Binding to the Pre-complex” value in experiment [7] was found to be 0.31 nm.

B6: H1M9559N (antibody, mouse IgG1, V domains shown)
VH: QVQLVESGGGVVQPGRSLRLSCAASGFTFSSYGMHWVRQAPGKGLEWVAVIWYDGRNKYYTDSVKGRFTISRDNSKNTLYLQMDSLRAEDTAVYYCARERYISSYYGGFDPWGQGALVTVSS
VL: B5 VL with F30S, L46V, I85T, V94F, I96F, Q100P, R103K, E105D
notes: Human variable domains, mouse IgG1 Fc (H1M)
B6: in experiment [1], the Kd was 0.678 nM, the koff was determined as 0.000274 s⁻¹, the kon was 404000 M⁻¹ s⁻¹ and the t½ was found to be 42 min. In experiment [2], the affinity, expressed as Kd, was 3.82 nM; the koff worked out at 0.00123 s⁻¹; the kon stood at 321000 M⁻¹ s⁻¹; the t½ was found to be 9 min. Besides, in experiment [3], the Kd came out at 2.03 nM, the koff was 0.000962 s⁻¹, the kon came out at 473000 M⁻¹ s⁻¹ and the t½ was found to be 12 min. Moreover, in experiment [4], binding was characterised by a dissociation constant (Kd) of 7.04 nM, the koff stood at 0.00347 s⁻¹, the kon was found to be 493000 M⁻¹ s⁻¹ and the t½ stood at 3.3 min. For the same molecule, the “mAb-1 Binding (nm)” value in experiment [5] came to 0.5 nm. In experiment [6], the “Antibody Binding Response (RU)” value is -4 RU. The “mAb-2 Binding to the Pre-complex” value in experiment [7] was 0.25 nm.
